Measurements as given in paper PMC7588230, “Structural basis of αE-catenin–F-actin catch bond behavior” (eLife, 2020).

B1: αE-catenin ABD 666–906 (full length) (domain or fragment)
chain: GQSARAIMAQLPQEQKAKIAEQVASFQEEKSKLDAEVSKWDDSGNDIIVLAKQMCMIMMEMTDFTRGKGPLKNTSDVISAAKKIAEAGSRMDKLGRTIADHCPDSACKQDLLAYLQRIALYCHQLNICSKVKAEVQNLGGELVVSGVDSAMSLIQAAKNLMNAVVQTVKASYVASTKYQKSQGMASLNLPAVSWKMKAPEKKPLVKREKQDETQTKIKRASQKKHVNPVQALSEFKAMDSI
B2: αE-catenin ABD 671–906 (domain or fragment)
chain: AIMAQLPQEQKAKIAEQVASFQEEKSKLDAEVSKWDDSGNDIIVLAKQMCMIMMEMTDFTRGKGPLKNTSDVISAAKKIAEAGSRMDKLGRTIADHCPDSACKQDLLAYLQRIALYCHQLNICSKVKAEVQNLGGELVVSGVDSAMSLIQAAKNLMNAVVQTVKASYVASTKYQKSQGMASLNLPAVSWKMKAPEKKPLVKREKQDETQTKIKRASQKKHVNPVQALSEFKAMDSI
B3: αE-catenin ABD 692–906 (domain or fragment)
chain: QEEKSKLDAEVSKWDDSGNDIIVLAKQMCMIMMEMTDFTRGKGPLKNTSDVISAAKKIAEAGSRMDKLGRTIADHCPDSACKQDLLAYLQRIALYCHQLNICSKVKAEVQNLGGELVVSGVDSAMSLIQAAKNLMNAVVQTVKASYVASTKYQKSQGMASLNLPAVSWKMKAPEKKPLVKREKQDETQTKIKRASQKKHVNPVQALSEFKAMDSI
B4: αE-catenin ABD 696–906 (domain or fragment)
chain: SKLDAEVSKWDDSGNDIIVLAKQMCMIMMEMTDFTRGKGPLKNTSDVISAAKKIAEAGSRMDKLGRTIADHCPDSACKQDLLAYLQRIALYCHQLNICSKVKAEVQNLGGELVVSGVDSAMSLIQAAKNLMNAVVQTVKASYVASTKYQKSQGMASLNLPAVSWKMKAPEKKPLVKREKQDETQTKIKRASQKKHVNPVQALSEFKAMDSI
B5: αE-catenin ABD 699–906 (domain or fragment)
chain: DAEVSKWDDSGNDIIVLAKQMCMIMMEMTDFTRGKGPLKNTSDVISAAKKIAEAGSRMDKLGRTIADHCPDSACKQDLLAYLQRIALYCHQLNICSKVKAEVQNLGGELVVSGVDSAMSLIQAAKNLMNAVVQTVKASYVASTKYQKSQGMASLNLPAVSWKMKAPEKKPLVKREKQDETQTKIKRASQKKHVNPVQALSEFKAMDSI
B6: αE-catenin ABD 671–872 (domain or fragment)
chain: AIMAQLPQEQKAKIAEQVASFQEEKSKLDAEVSKWDDSGNDIIVLAKQMCMIMMEMTDFTRGKGPLKNTSDVISAAKKIAEAGSRMDKLGRTIADHCPDSACKQDLLAYLQRIALYCHQLNICSKVKAEVQNLGGELVVSGVDSAMSLIQAAKNLMNAVVQTVKASYVASTKYQKSQGMASLNLPAVSWKMKAPEKKPLVKR
B7: αE-catenin ABD 699–868 (domain or fragment)
chain: DAEVSKWDDSGNDIIVLAKQMCMIMMEMTDFTRGKGPLKNTSDVISAAKKIAEAGSRMDKLGRTIADHCPDSACKQDLLAYLQRIALYCHQLNICSKVKAEVQNLGGELVVSGVDSAMSLIQAAKNLMNAVVQTVKASYVASTKYQKSQGMASLNLPAVSWKMKAPEKKP
B8: αE-catenin ABD 671–906 W859A (domain or fragment)
chain: AIMAQLPQEQKAKIAEQVASFQEEKSKLDAEVSKWDDSGNDIIVLAKQMCMIMMEMTDFTRGKGPLKNTSDVISAAKKIAEAGSRMDKLGRTIADHCPDSACKQDLLAYLQRIALYCHQLNICSKVKAEVQNLGGELVVSGVDSAMSLIQAAKNLMNAVVQTVKASYVASTKYQKSQGMASLNLPAVSAKMKAPEKKPLVKREKQDETQTKIKRASQKKHVNPVQALSEFKAMDSI

Target: F-actin (rabbit skeletal muscle actin, ADP-actin filaments) (rabbit, UniProt P68135 1-377)
Test: co-sedimentation; dilution series of ABD mixed with an equal volume of 4 μM F-actin, 30 min at room temperature, 20 mM HEPES pH 8.0, 150 mM NaCl, 1 mM DTT; pelleted at 140,717 x g for 20 min at 4°C; Coomassie bands quantified; fit with a Hill coefficient (W859A: one site-specific binding)
Conditions: both partners purified

Binder	Kd
B1	8.5 µM
B2	2 µM
B3	0.7 µM
B4	0.4 µM
B5	0.5 µM
B6	5 µM
B7	2.8 µM
B8	> 35 µM
